Data published in paper doi:10.1101/2020.05.19.103432.

Legend:
[1] = target: GltPh K55C/C321A/A364C mutant, cross-linked with HgCl2 (GltPh^IFS) (UniProt O59010); assay: cryo-EM structure
[2] = target: GltPh, fully functional seven-histidine mutant, referred to as wildtype (WT) (UniProt O59010); assay: cryo-EM structure

| Substance | stoichiometry N [1] | stoichiometry N [2] |
| --- | --- | --- |
| GltPh K55C/C321A/A364C mutant, cross-linked with HgCl2 (GltPh^IFS) (from UniProt O59010 1-425) (natural protein) | 3 |  |
| GltPh, fully functional seven-histidine mutant, referred to as wildtype (WT) (from UniProt O59010 1-417) (natural protein) |  | 3 |
